Measured values: US20260325600A1, “FORMULATIONS FOR INTRAOCULAR DELIVERY OF PEPTIDES DERIVED FROM TYPE IV COLLAGEN” (ASCLEPIX THERAPEUTICS, INC., priority 2022, published 2026)

Assays:
[1] = In vitro gel formation in mock vitreous and homogenization; type: physicochemical
Procedure: In alternative embodiments, microparticles can be prepared and fragmented. For example, a vitreous-like solution (“mock vitreous”) was prepared with sodium hyaluronate and used for in vitro pre-fragmented gel formation experiments. The AXT107 peptide solution is added to the mock vitreous, upon which the peptide forms a gel.

[2] = aqueous solution administered into vitreous from animals and people; cited from earlier work

LRRFSTAPFAFIDINDVINF [AXT107]
product of homogenization of gel ([1]; gels homogenized after formation in mock vitreous): suspended microparticles comparable to those formed in excipient formulation with mixing
gel formation in mock vitreous ([1]; mock vitreous with sodium hyaluronate): forms a gel
gel formation in vitreous [2]: precipitate to form a gel-like substance
